Values joined by “and” are separate entries in the source; they are usually repeats but may differ in a detail not shown here. Equal entries are not always repeated.
What was measured:
HO-1 [1] = test: Renal cortical HO-1 mRNA (RT-PCR) and protein (ELISA) after IV myoglobin, SnPP or both (Example 1); format: in vivo, mice
Description: The Glycerol Model of AKI. This is a widely used model of rhabdomyolysis-induced AKI that has been employed worldwide for 50 years. The model was used to test whether prophylactic interventions confer protection against AKI. Basically, the protocol is as follows: Male CD-1 mice (35-45 grams), obtained from Charles River Laboratories, Wilmington, M A were studied. Mice were maintained under standard vivarium conditions and generally housed for 1-3 weeks prior to study. The mice were placed in a cylindrical restraining cage, and then were given a tail vein injection of the test substances (see below) or test substance vehicle. The mice were then returned to their cages. Eighteen hours (hrs) later, the mice were briefly anesthetized by isoflurane inhalation, and given an intramuscular injection of hypertonic (50%) glycerol in a dose of 9 ml/Kg body weight. The dose is divided in two, with half injected into the muscle of each of the hind limbs. The mice were then returned to their cages. Eighteen hrs later, the mice were deeply anesthetized with pentobarbital (50-100 mg/Kg), the abdominal cavity was opened through a midline abdominal incision, a blood sample was obtained from the abdominal vena cava and the kidneys were resected. A kidney cross section was obtained and fixed in formalin for subsequent histologic analysis. The terminal blood samples were analyzed for BUN and creatinine, using commercially available assay kits. The remaining kidney tissue was subjected to cortical dissection, and the cortical tissues were then extracted for protein and RNA. The protein samples were saved for analysis of HO-1 levels, and the RNA samples were subjected to RT-PCR to quantify HO-1 mRNA as well as levels of other stress gene mRNAs (e.g. NGAL, haptoglobin, hemopexin, hepicidin).
Myoglobin+SnPP: To 5 mg of dry myoglobin was added 0.9 ml of PBS+0.1 ml of a stock SnPP solution (50 umole/ml). The resulting final concentrations were 5 mg/ml myoglobin+5 umoles/ml of SnPP. The tail vein was injected with 200 μl of this solution, which equals 1 mg myoglobin+1 umole SnPP. […]
Four hr post myoglobin vs myoglobin+SnPP vs SnPP alone experiments. To confirm that the myoglobin+SnPP has a synergistic effect in inducing HO-1 mRNA and HO-1 protein levels, each of the above combinations have been administered alone via tail vein injection. Four hrs later, the mice were sacrificed as noted above and the kidneys were harvested for assessment of HO-1 mRNA and protein levels. For additional information regarding methods, see Zager et al., Am J Physiol Renal Physiol. 2014 Jul. 30. Pii.

haptoglobin = test: Haptoglobin protein expression after SQ injection of myoglobin or myoglobin + PEG; format: in vivo, mice; details: 4 hour time point after SQ injection; control 9.5
Protocol: Myoglobin+PEG: To a stock solution of 20 mg/ml Mgb in PBS was added 100 mg/ml of PEG-6000; 250 ul. This was administered as a subcutaneous injection in the dorsal neck (250 ul total injection). For combined Mgb/PEG+SnPP, SnPP was added to the above in a concentration of 3 mg/ml.

[2] = Plasma LDH 4 hr after IV test agents (marker of liver, kidney, lung and heart injury); format: in vivo, mice; details: 4 hr IV
HK-2 cells = test: Myoglobin toxicity in HK-2 cells, MTT assay; format: cell-based; details: 10 mg/mL, 18 hr incubation, vs control incubated cells
Protocol: Example 3. […] HK-2 cells (a proximal tubule cell line derived from normal human kidney) were incubated in keratinocyte serum free medium either under normal (control) conditions or in the presence of 10 mg/mL horse skeletal muscle myoglobin or nitrited myoglobin (produced by equimolar Na nitrite addition to 10 mg/ml myoglobin). After 18 hr incubations, the severity of cell injury (% cell death) was assessed by MTT assay. Myoglobin induced 40% cell death (40% decrease in MTT cell uptake), compared to control incubated cells. Nitrite binding to myoglobin reduced cell death by 75%. Thus, nitrite binding is able to reduce myoglobin's cytotoxic effects.

HO-1 [3] = test: Renal cortical HO-1 mRNA (RT-PCR) and protein (ELISA) after IV myoglobin, SnPP or both (Example 1); format: in vivo, mice; details: 1 mg myoglobin, 1 μmole SnPP

B1: Myoglobin: Lyophilized horse skeletal muscle (myoglobin) (Sigma Chemicals) used as the test agent (protein, listed as Homo sapiens)
chain: MGLSDGEWQLVLNVWGKVEADIPGHGQEVLIRLFKGHPETLEKFDKFKHLKSEDEMKASEDLKKHGATVLTALGGILKKKGHHEAEIKPLAQSHATKHKIPVKYLEFISECIIQVLQSKHPGDFGADAQGAMNKALELFRKDMASNYKELGFQG
In the case of B1, the “HO-1 protein expression (by ELISA), Average” value (HO-1 [1]; cortex, 4 hr IV, 1 mg myoglobin, 1 μmole SnPP, PBS 13.5, carrier 21.5) is reported as 45.4 ng HO-1/mg protein, the “HO-1 protein expression (by ELISA)” value (HO-1 [1]; cortex, 4 hr IV, 1 mg myoglobin, 1 μmole SnPP, individual mice) is reported as 40.7 ng HO-1/mg protein and 40.2 ng HO-1/mg protein and 64.7 ng HO-1/mg protein and 36.0 ng HO-1/mg protein and the “HO-1/GAPDH mRNA, Average” value (HO-1 [1]; kidney, 4 hr post IV injection, control average 1.93) is reported as 3.93. For the same molecule, the “HO-1/GAPDH mRNA” value (HO-1 [1]; kidney, 4 hr post IV injection, individual mice) was 7.78 and 2.93 and 2.58 and 2.41, the Haptoglobin protein expression (haptoglobin) was 32.7 ± 6.3 ng/mg protein and the “Plasma LDH, Average” value ([2]; carrier 4.43) was 4.47 Absorbance U LDH/ml. The “Plasma LDH” value ([2]; individual subjects) was 4.54 Absorbance U LDH/ml (2×) and 3.90 Absorbance U LDH/ml and 4.91 Absorbance U LDH/ml, the “Cell death (decrease in MTT cell uptake)” value (HK-2 cells) was 40% and the “HO-1 mRNA induction (HO-1/GAPDH mRNA)” value (HO-1 [3]; overnight (roughly 18 hrs) post IV, individual subjects) was 0.71 and 0.53 and 0.51. For the same molecule, the HO-1 protein induction (HO-1 [3]; overnight (roughly 18 hrs) post IV, individual subjects, in ng/mg protein) was 50.6 and 34.9 and 24.6, the “HO-1 mRNA induction (HO-1/GAPDH mRNA), Average” value (HO-1 [3]; overnight post IV, control 0.46) was 0.58 and the “HO-1 protein induction, Average” value (HO-1 [3]; overnight post IV, control 20.5) was 36.7.
